Test results published in patent US20240262910A1.

Legend:
[1] = target: cynomolgus monkey CD33 extracellular domain with 6xHis-tag (cynomolgus monkey); experiment: ELISA, hybridoma supernatant
[2] = target: mouse CD33 extracellular domain with 6xHis-tag (mouse) (UniProt Q63994); experiment: ELISA, hybridoma supernatant
Sequence of mouse CD33 extracellular domain with 6xHis-tag (mouse) (Q63994 other isoform, or with tags, fused parts or gaps limits assumed): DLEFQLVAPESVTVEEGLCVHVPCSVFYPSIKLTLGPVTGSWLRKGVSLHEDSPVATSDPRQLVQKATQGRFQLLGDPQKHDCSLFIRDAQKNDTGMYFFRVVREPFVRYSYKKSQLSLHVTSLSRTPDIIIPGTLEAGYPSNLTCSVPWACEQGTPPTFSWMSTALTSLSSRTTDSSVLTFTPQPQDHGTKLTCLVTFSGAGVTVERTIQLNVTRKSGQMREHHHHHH

Row | Binder | RLU [1] | RLU [2]
1 | 1-A20 (antibody, V domains shown) VH: QVQLQESGPGLVKPSETLSLTCTVSGDSISSYYWSWIRQPAGKGLEWIGRIYTSGNTNYNPSLKSRVTMSVDKSKNQFSLKLRSVTAADTAVYYCARDGDNRDSDAFDIWGQGTMVTVSS VL: SPGTLSLSPGERATLSCRASQNISSSYLAWCQQKPGQAPRLFIYGTSRRATGIPDRFSGSGSGTDFTLTISRLEPEDFAVYYCQQYGSSPLTFGGGTKVEIK | 35500 RLU | –
2 | 3-P14 (hybridoma antibody) (antibody, V domains shown) VH: EVQLLESGGGLVQPGGSLRLSCAASGFTFSTYAMSWVRQAPGKGLEWVSAISGRGGSTYYTDSVKGRFTISRDNSKNTVSLQMNSLRAEDTAVYYCAGRGDYYYYYGMDVWGQGTTVTVSA VL: DIVMTQSPLSSPVTLGQPASFSCRSSQSLVYSDGNTYLSWLQQRPGQPPRLLIYKISNRFSGVPDRFSGSGAGTDFTLKISRVEAEDVGVYYCMQSTQFPHTFGQGTKLEIK | 12700 RLU | 13700 RLU
3 | 1-H19 (antibody, V domains shown) VH: QVQLQESGPGLVKPSETLSLTCTVSGGSISTYYWSWIRQPAGKGLEWIGRIYTSGNTNYNPSLKSRVTMSVDTSKNQLSLKLRSVTAADTAVYYCARDGDNRNSDAFDIWGQGTMVTVSS VL: QSVLTQPPSVSGAPGQRVTISCTGSSSNIGAGYDVHWYQQLPGTAPKLLIYGNSNRPSGVPDRFSGSKSGTSASLAITGLQAEDEADYYCQSYDRSLSGWVFGGGTKLTVL | 22500 RLU | –
